Assay results as given in US20230312698A1 (NANJING GENSCRIPT BIOTECH, published 2023).
Where two headings read alike, the source gives them in different places.

T1: human Ang2 protein (R&D Systems, 623-AN-01M/CF; 623-AN/CF) (human, UniProt O15123 19-496)
T1 chain: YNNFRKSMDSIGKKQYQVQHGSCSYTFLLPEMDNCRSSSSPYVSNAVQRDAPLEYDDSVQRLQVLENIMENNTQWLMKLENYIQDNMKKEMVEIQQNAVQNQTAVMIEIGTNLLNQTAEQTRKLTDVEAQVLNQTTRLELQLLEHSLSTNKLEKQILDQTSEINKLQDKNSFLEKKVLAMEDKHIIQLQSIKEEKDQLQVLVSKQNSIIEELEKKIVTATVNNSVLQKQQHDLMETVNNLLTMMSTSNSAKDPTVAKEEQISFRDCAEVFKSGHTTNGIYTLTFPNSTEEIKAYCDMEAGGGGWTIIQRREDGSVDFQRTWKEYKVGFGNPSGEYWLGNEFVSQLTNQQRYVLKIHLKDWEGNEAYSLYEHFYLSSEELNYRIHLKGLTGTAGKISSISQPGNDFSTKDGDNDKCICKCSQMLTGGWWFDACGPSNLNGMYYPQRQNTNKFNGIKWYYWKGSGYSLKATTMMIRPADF

T2: mouse Ang2 protein (R&D Systems, 7186-AN-025/CF) (mouse, UniProt O35608 19-496, limits assumed)
T2 construct: Bought recombinant protein
T2 sequence (looked up): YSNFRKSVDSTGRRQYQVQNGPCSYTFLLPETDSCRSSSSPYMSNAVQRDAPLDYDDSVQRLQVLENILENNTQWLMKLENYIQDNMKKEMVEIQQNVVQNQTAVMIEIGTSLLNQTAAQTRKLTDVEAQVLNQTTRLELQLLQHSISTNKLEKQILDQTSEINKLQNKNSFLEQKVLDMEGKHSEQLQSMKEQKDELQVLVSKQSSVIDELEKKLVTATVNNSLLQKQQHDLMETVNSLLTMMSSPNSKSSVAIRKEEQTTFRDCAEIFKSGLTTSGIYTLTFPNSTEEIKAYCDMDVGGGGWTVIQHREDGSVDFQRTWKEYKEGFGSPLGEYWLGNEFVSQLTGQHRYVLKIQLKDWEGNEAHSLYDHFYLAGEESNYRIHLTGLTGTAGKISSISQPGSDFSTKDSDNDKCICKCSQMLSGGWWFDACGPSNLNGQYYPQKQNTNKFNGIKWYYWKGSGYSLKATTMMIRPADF

T3: human Ang2 protein (R&D Systems, 623-AN-01M/CF; 623-AN/CF) (human, UniProt O15123 19-496)
T3 construct: Bought recombinant protein; also called Ang2 proteins; angiopoietin-2
T3 sequence (looked up): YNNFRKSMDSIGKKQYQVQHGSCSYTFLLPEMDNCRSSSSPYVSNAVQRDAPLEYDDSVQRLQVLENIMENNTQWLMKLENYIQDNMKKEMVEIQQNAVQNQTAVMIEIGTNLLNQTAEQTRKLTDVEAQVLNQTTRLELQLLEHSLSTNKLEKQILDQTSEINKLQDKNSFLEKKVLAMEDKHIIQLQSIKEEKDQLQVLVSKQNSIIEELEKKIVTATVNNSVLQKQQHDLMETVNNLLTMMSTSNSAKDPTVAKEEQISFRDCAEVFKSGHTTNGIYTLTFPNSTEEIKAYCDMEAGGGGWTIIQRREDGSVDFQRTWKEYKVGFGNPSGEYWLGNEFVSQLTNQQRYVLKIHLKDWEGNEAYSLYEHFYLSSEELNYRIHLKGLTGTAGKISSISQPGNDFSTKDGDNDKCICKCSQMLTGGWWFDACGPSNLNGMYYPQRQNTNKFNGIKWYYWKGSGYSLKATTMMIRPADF

T4: membrane-anchored human Ang2 protein expressed on CHO-K1 cells (human, UniProt O15123 19-496)
T4 chain: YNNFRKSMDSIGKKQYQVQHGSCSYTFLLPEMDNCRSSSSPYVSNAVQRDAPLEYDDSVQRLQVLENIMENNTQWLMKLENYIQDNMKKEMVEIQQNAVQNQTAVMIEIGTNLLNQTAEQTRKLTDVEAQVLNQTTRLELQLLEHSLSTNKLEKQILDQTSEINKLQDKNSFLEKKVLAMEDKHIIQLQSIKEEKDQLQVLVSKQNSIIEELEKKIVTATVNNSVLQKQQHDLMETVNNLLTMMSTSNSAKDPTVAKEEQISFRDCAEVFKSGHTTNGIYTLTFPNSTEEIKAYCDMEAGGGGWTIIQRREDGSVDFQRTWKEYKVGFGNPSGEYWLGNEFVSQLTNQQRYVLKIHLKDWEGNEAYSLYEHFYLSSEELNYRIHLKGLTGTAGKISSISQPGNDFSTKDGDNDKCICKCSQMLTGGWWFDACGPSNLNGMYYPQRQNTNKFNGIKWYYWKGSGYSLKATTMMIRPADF

T5: membrane-anchored cyno Ang2 protein expressed on CHO-K1 cells (cyno, UniProt A0A2K5VNX6 19-496)
T5 chain: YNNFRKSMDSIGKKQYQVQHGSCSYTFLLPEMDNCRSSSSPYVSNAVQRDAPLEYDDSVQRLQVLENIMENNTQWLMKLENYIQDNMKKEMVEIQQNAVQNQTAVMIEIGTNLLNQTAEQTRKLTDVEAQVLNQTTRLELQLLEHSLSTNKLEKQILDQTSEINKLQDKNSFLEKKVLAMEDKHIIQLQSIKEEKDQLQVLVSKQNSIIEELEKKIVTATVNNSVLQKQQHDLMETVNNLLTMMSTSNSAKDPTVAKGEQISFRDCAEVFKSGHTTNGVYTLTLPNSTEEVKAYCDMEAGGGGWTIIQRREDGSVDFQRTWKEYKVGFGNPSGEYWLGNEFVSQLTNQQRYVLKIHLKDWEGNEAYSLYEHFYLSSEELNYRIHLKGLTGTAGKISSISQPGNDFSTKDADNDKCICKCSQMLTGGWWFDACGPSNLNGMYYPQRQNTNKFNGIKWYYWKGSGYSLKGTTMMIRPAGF


Assays:
[1] = biological target: T1, human Ang2 protein (R&D Systems, …); experiment: ELISA
[2] = biological target: T1, human Ang2 protein (R&D Systems, …); experiment: ELISA
[3] = biological target: T2, mouse Ang2 protein (R&D Systems, …); experiment: indirect ELISA, mouse Ang2 coated at 0.5 µg/ml
Experimental: (§1) The antibodies were tested for their binding activities to Ang2 in an indirect ELISA. Briefly, 100 μl of 0.5 μg/ml human or mouse Ang2 proteins (R&D Systems; 623-AN-01M/CF for human Ang2, 7186-AN-025/CF for mouse Ang2) were pre-coated onto ELISA plates overnight at 4° C. On the next day, the plates were incubated with […] diluted primary antibodies, with initial concentration at 1 μg/ml. The plates were added with HRP-conjugated goat anti-mouse IgG (H+L) and then TMB for chromogenic reaction. The antibody-antigen binding curves were generated with optical density readings at 450 nm. Raw data was plotted using GraphPad Prism v6.02 software with four parameters, and best-fit values program was used to analyze the EC₅₀.

[4] = biological target: T3, human Ang2 protein (R&D Systems, …); experiment: indirect ELISA, human Ang2 coated at 0.5 µg/ml
Experimental: as §1

[5] = biological target: T4, membrane-anchored human Ang2 protein …; experiment: FACS
[6] = biological target: T5, membrane-anchored cyno Ang2 protein …; experiment: FACS
[7] = biological target: T3, human Ang2 protein (R&D Systems, …); experiment: indirect ELISA, human Ang2 coated at 0.5 µg/ml, anti-human IgG-HRP
Experimental: The humanized antibodies were tested for their binding activities to human Ang2 in an indirect ELISA. Briefly, 100 μl of 0.5 μg/ml human Ang2 proteins (R&D Systems; 623-AN-01M/CF) were pre-coated onto ELISA plates overnight at 4° C. On the next day, the plates were incubated with 100 μl 3× serially diluted primary antibodies, with initial concentration at 1 μg/ml. The plates were added with HRP-conjugated goat anti-human IgG antibody (Jackson, cat #109-605-098) and then TMB for chromogenic reaction. The antibody-antigen binding curves were generated with optical density readings at 450 nm. Antibody ABA and IgG1 were used as a positive and negative control respectively. Raw data was plotted using GraphPad Prism v6.02 software with four parameters, and best-fit values program was used to analyze the EC₅₀.

Row | Binder | EC50 [1] [ng/mL] | EC50 [2] [ng/mL] | binding result [3] | binding result [4] | EC50 [5] [nM] | EC50 [6] [nM] | binding result [7]
1 | 85E10B9-VH1-VL6 (antibody, V domains shown) VH: QVQLVQSGAEVKKPGASVKVSCKASGYTFTNHYLHWVRQAPGQGLEWMGWIGPTNGDTSYAQKFKDRVTMTRDTSISTAYMELSRLRSDDTAVYYCAREGYFTNYFDYWGQGTLVTVSS VL: DIQMTQSPSSLSASVGDRVTITCKASQNVIKYLAWYQQKPGKAPKRLIYNASSLQTGVPSRFSGSGSGTEFTLTISSLQPDDFATYYCLQYNSWWTFGQGTKVEIK | 7.29 |  |  |  |  |  | 
2 | 46F3H4 (antibody, V domains shown, Hybridoma antibody purified with Protein-A beads) VH: EVQLHQSGPELVKPGASVKMSCKASGYTFTNYYIHWVKQSHGKSIEWIGYIYPNNGDTTYNQKFKGKATLTVDKSSSIAYMELRSLTSEDSAVYYCAVVSYSNYVAGAMDYWGQGTSVTVSS VL: SIVMTQTPKFLLVSAGDRVTITCKASQSVSNDVAWYQQKPGQSPKLLIYFASNRYTGVPDRFTGSGYGTDFTFTISTVQAEDLAVYFCQQDYSSPYTFGGGTKLEIK |  | 42.4 | no binding (tested: initial concentration at 1 µg/ml) | binds | 6.33 | 18.8 | 
3 | 42A2A6 (antibody, V domains shown, Hybridoma antibody purified with Protein-A beads) VH: DVQLQESGPGLVKPSQSLSLTCTVTGYSITSDYAWNWIRQFPGNKLEWMGFINYSGTTSYNPSLKSRISLTRDTSKNQFFLQLNSVTTEDTATYYCARWGYSDFLYYFDYWGQGTTLTVSS VL: QIVLSQSPAILSASPGEKVTMTCRASSSVSYIHWYQQKPGYSPKPWIYATSNLASGVPARFSGGGSGTSYSLTISRVEAEDAATYYCQQWSNNPWTFGGGTKLEIK |  | 9.87 | no binding (tested: initial concentration at 1 µg/ml) | binds | 7.84 | 3.88 | 
4 | 46H3H3 (antibody, V domains shown, Hybridoma antibody purified with Protein-A beads) VH: EVKLVESGGGLVQPGGSRKLSCAASGFTFSDYGMVWVRQAPGKGLEWVAYIGSGRSTIYYADTVKGRFTISRDNPKNTLFLQMSSLRSEDTAMYYCAREDNGYSYAMDYWGQGTSVTVSS VL: DIQMTQSPASQSASLGESVTITCLASQTIGTWLAWYQQKPGKSPQLLIYAATSLADGVPSRFSGSGSGTKFSFKISSLQAEDFVSYYCQQLYSTPLTFGAGTKLELK |  | 6.34 | no binding (tested: initial concentration at 1 µg/ml) | binds | 0.203 | 0.342 | 
5 | 5A7B9 (antibody, V domains shown, Hybridoma antibody purified with Protein-A beads) VH: QIQLVQSGPELKKPGETVKISCKASGYTFTNYGVNWVKQAPGKGLKWMGWINSYSGVPTYADDFKGRFAFSLETSASTAYLQINNLKNEDTATYFCARGENNYYGGSYDWGQGTTLTVSS VL: SIVMTQTPKFLLVSAGDRVTITCKASQSVSNDVAWYQQKPGQSPKLLIYYASNRYTGVPDRFTGSGYGTDFTFTISTVQAEDLAVYFCQQDYSSPLTFGAGTKLELK |  | 7.47 | no binding (tested: initial concentration at 1 µg/ml) | binds | 0.369 | 0.662 | 
6 | 53E8B2-VH3-VL2 (antibody, V domains shown) VH: EVQLVESGGGLVQPGGSLRLSCAASGFTFSDYAMAWVRQAPGKGLEWVATIIYDGSSTYYRDSVKGRFTISRDNAKNSLYLQMNSLRAEDTAVYYCARHGRVFGFGYFDYWGQGTLVTVSS VL: DIQMTQSPSSVSASVGDRVTITCQASQDIGDWVAWYQQKPGRAPKLLIYGADRLADGVPSRFSGSGSGTDFTLTISSLQPEDFATYYCLQDYSPPFTFGQGTKLEIK | 4.35 |  |  |  |  |  | 
7 | 4D8F2 (antibody, V domains shown, Hybridoma antibody purified with Protein-A beads) VH: DVQLQESGPGLVKPSQSLSLTCTVTGYSITSDYAWNWIRQFPGNKLEWMGYISYSGSTSYNPSLKSRISITRDTSKNQFFLQLNSVTTEDTATYYCARGVRGDMDYWGQGTSVTVSS VL: SIVMTQTPKFLLVSAGDRVTITCKASQSVSNDVAWYQQKPGQSPKLLIYYASNRYTGVPDRFTGSGYGTDFTFTISTVQAEDLAVYFCQQDYSSPFTFGSGTKLEIK |  | 7.17 | no binding (tested: initial concentration at 1 µg/ml) | binds | 1.69 | 2.37 | 
8 | 85E10B9-VH3-VL1 (antibody, V domains shown, Humanized antibody expressed in CHO-3E7; also called humanized 85E10B9 lead) VH: QVQLVQSGAEVKKPGASVKVSCKASGYTFTNHYLHWVRQAPGQRLEWMGWIGPTNGDTSYAQKFKDRVTITRDTSASTAYMELSSLRSEDTAVYYCAREGYFTNYFDYWGQGTLVTVSS VL: DIQMTQSPSSLSASVGDRVTITCKASQNVIKYLAWYQQKPGKVPKLLIYNASSLQTGVPSRFSGSGSGTDFTLTISSLQPEDVATYYCLQYNSWWTFGGGTKVEIK | 0.718 |  |  |  |  |  | binds
9 | 85E10B9-VH3-VL2 (antibody, V domains shown) VH: QVQLVQSGAEVKKPGASVKVSCKASGYTFTNHYLHWVRQAPGQRLEWMGWIGPTNGDTSYAQKFKDRVTITRDTSASTAYMELSSLRSEDTAVYYCAREGYFTNYFDYWGQGTLVTVSS VL: DIQLTQSPSFLSASVGDRVTITCKASQNVIKYLAWYQQKPGKAPKLLIYNASSLQTGVPSRFSGSGSGTEFTLTISSLQPEDFATYYCLQYNSWWTFGGGTKVEIK | 4.52 |  |  |  |  |  | 
